Test results as given in patent US20220298235A1 (AKESO BIOPHARMA, published 2022).
Numbering of substitutions follows the chain as printed.

T1: human IL-23 (IL-23-His-Biotin) (human, UniProt Q9NPF7 20-189; P29460 23-328, biotin label, site not stated)
T1 construct: Akesobio lot 20161209; His-tagged and biotinylated
T1 sequence (looked up) 1: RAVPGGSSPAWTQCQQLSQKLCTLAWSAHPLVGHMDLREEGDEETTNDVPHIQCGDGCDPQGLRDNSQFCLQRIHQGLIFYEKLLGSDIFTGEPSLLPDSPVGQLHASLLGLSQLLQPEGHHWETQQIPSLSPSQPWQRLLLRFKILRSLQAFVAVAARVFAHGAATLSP
T1 sequence (looked up) 2: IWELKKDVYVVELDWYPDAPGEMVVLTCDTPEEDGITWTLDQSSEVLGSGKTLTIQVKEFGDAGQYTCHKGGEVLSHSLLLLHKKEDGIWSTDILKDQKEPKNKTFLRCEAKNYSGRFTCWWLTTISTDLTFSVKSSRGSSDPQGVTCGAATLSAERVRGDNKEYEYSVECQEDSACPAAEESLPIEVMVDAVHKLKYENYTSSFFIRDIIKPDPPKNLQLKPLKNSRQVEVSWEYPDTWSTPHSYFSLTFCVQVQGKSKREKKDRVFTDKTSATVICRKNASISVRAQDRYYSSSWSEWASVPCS

T2: Human IL12 (His Tag) (human, UniProt P29459 23-219; P29460 23-328)
T2 construct: Bought His-tagged heterodimer
T2 sequence (looked up) 1: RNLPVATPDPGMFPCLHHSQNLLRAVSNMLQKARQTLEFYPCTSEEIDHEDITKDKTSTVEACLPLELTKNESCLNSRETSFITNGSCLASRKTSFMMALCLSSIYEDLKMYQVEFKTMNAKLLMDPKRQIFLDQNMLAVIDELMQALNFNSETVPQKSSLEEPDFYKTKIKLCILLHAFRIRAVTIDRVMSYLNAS
T2 sequence (looked up) 2: T1 sequence (looked up) 2

T3: human p40-His (human, UniProt P29460 23-328)
T3 construct: Made by Akeso Biopharma; construct limits and tag not described; also called human IL-12/IL-23 p40 protein domain; human IL-12/IL-23 p40; not shown: His tag
T3 sequence (looked up): T1 sequence (looked up) 2

B1: H5L10 (antibody, human IgG1, kappa, V domains shown)
VH: EVQLVQSGAEVKKPGESLKISCQSSGYSFTTYWIGWVRQMPGQGLEWIGIMSPVDSDIRYNPMFRGQVTMSVDKSSSTAYLQWSSLKASDTAMYYCARRRPGQGYFDFWGQGTMVTVSS
VL: EIVLTQSPATLSASPGERATISCRASQSVGSWLAWYQQKPGQAPRSLIYAASNLQSGIPARFSGSGSGTDFTLTISSLEPEDFAVYYCQQYNIYPYTFGQGTRLEIKR
notes: human IgG1 / kappa constant regions; also called humanized antibody H5L10
B2: H5L11 (antibody, human IgG1, kappa, V domains shown)
VH: B1 VH
VL: B1 VL with G30S, A50S
notes: human IgG1 / kappa constant regions; also called humanized antibody H5L11
B3: H5L12 (antibody, human IgG1, kappa, V domains shown)
VH: B1 VH
VL: B1 VL with G30S, L54R
notes: human IgG1 / kappa constant regions; also called humanized antibody H5L12
B4: H5L14 (antibody, human IgG1, kappa, V domains shown)
VH: B1 VH
VL: B1 VL with G30S, Y96F
notes: human IgG1 / kappa constant regions; also called humanized antibody H5L14
B5: ustekinumab (antibody, V domains shown)
VH: EVQLVQSGAEVKKPGESLKISCKGSGYSFTTYWLGWVRQMPGKGLDWIGIMSPVDSDIRYSPSFQGQVTMSVDKSITTAYLQWNSLKASDTAMYYCARRRPGQGYFDFWGQGTLVTVSS
VL: DIQMTQSPSSLSASVGDRVTITCRASQGISSWLAWYQQKPEKAPKSLIYAASSLQSGVPSRFSGSGSGTDFTLTISSLQPEDFATYYCQQYNIYPYTFGQGTKLEIK
B6: H5L9 (antibody, human IgG1, kappa, V domains shown)
VH: B1 VH
VL: DIQMTQSPSSLSASVGDRVTITCKASQNVGSWLAWYQQKPGKAPKSLIYSASSRQSGVPSRFSGSGSGTDFTLTISSLQPEDFATYYCQQYDIYPFTFGQGTKLEIKR
notes: human IgG1 (P01857) / kappa (P01834) constant regions; also called humanized antibody H5L9

Molecular target: T1, human IL-23 (IL-23-His-Biotin)
Assay: FACS competition, IL-23-His-Biotin 2 µg/mL on 293T-IL-12Rβ1&IL-23R cells; antibody 10 µg/mL
Description: (§1) 200 μL of 1% PBSA was added into each sample, and the mixture was centrifuged at 700×g for 5 min to discard the supernatant. According to experiment design, correspondingly diluted antibody (highest final concentration of 30 μg/mL, 3-fold dilution, 8 concentrations in total) and human IL-23 (IL-23-His-Biotin, Akesobio, 20161209) (final concentration of 2 μg/mL) were mixed at a ratio of 1:1, and a blank control was set. The mixture of antibody and human IL23 was incubated on ice for 30 min and then added to the cell precipitate at 100 μL/sample. The resulting mixture was well mixed and incubated on ice for 60 min. 200 μL of 1% PBSA was added, and the mixture was centrifuged at 700×g for 5 min to discard the supernatant, and then washed twice. FITC Steptavidin (Biolegend, Cat. No.: 405202) was diluted at a ratio of 1:500 and added to each tube at 100 μL. The mixture was well mixed and incubated on ice for 40 min in the absence of light. 200 μL of 1% PBSA was added, and the mixture was centrifuged at 700×g for 5 min to discard the supernatant, and then washed twice. 1% PBSA was added at 200 μL/tube, and the cells were resuspended and transferred to a flow cytometry tube for testing.

Going from B1 to B2, the MFI rises from 12.7 MFI to 14.5 MFI.

First: B3
Second: B4
The MFI of the first is lower: 12.7 MFI for the first, 16.7 MFI for the second.

First: B5
Second: B6
The MFI of the first is lower: 11.5 MFI for the first, 136 MFI for the second.

Molecular target: T2, Human IL12 (His Tag)
Assay: FACS competition, IL-12-His 20 nM on 293T-IL-12Rβ1&IL-23R cells; antibody 3.33 µg/mL
Description: 200 μL of 1% PBSA was added into each sample, and the mixture was centrifuged at 700×g for 5 min to discard the supernatant. According to experiment design, correspondingly diluted antibody (highest final concentration of 30 μg/mL, 3-fold dilution, 8 concentrations in total) and human IL-12 (Sino Biological, Cat. No.: CT-050-H08H-20) (final concentration of 20 nM) were mixed at a ratio of 1:1, and a blank control was set. The mixture of antibody and human IL12 was incubated on ice for 30 min and then added to the cell precipitate at 100 μL/sample. The resulting mixture was well mixed and incubated on ice for 60 min 200 μL of 1% PBSA was added, and the mixture was centrifuged at 700×g for 5 min to discard the supernatant, and then washed twice. Alexa Fluor® 488 anti-His tag antibody (Biolegend, Cat. No.: 652509) was diluted at a ratio of 1:400 and added to each tube at 100 μL. The mixture was well mixed and incubated on ice for 40 min in the absence of light. 200 μL of 1% PBSA was added, and the mixture was centrifuged at 700×g for 5 min to discard the supernatant, and then washed twice. 1% PBSA was added at 200 μL/tube, and the cells were resuspended and transferred to a flow cytometry tube for testing.

First: B1
Second: B2
The MFI of the first is lower: 40.2 MFI for the first, 42.2 MFI for the second.

Compared with B3, B4 is higher in MFI: 31.8 MFI for the first, 51.9 MFI for the second.

Compared with B5, B6 is higher in MFI: 29.7 MFI for the first, 146 MFI for the second.

Molecular target: T1, human IL-23 (IL-23-His-Biotin)
Assay: FACS competition, IL-23-His-Biotin 2 µg/mL on 293T-IL-12Rβ1&IL-23R cells; antibody 0.01 µg/mL
Description: as §1

Compared with B1, B2 is lower in MFI: 223 MFI for the first, 219 MFI for the second.

First: B3
Second: B4
The MFI of the first is higher: 221 MFI for the first, 218 MFI for the second.

Compared with B5, B6 is higher in MFI: 219 MFI for the first, 222 MFI for the second.

Molecular target: T1, human IL-23 (IL-23-His-Biotin)
Assay: FACS competition, IL-23-His-Biotin 2 µg/mL on 293T-IL-12Rβ1&IL-23R cells; antibody 1.11 µg/mL
Description: as §1

First: B1
Second: B2
The MFI of the first is lower: 81.6 MFI for the first, 97.6 MFI for the second.

First: B3
Second: B4
The MFI of the first is lower: 88.5 MFI for the first, 95.6 MFI for the second.

First: B5
Second: B6
The MFI of the first is lower: 121 MFI for the first, 184 MFI for the second.

Molecular target: T3, human p40-His
Assay: BLI (Fortebio), p40-His on HIS1K sensor, antibody 5-0.31 nM, 37 °C, 1:1 fit
Description: The sample dilution buffer for H5L9, H5L10, H5L11, H5L12, H5L14, H8L15, Ab123FR1 and ustekinumab was PBS (0.02% Tween-20, 0.1% BSA, pH 7.4). p40-His was immobilized on a HIS1K (manufacturer: Fortebio, Cat. No.: 18-5120) sensor at a concentration of 1 μg/mL for 40 s. The sensor was equilibrated in a buffer for 60 s, and the p40-His immobilized on the sensor bound to the antibody at a concentration of 5-0.31 nM (two-fold dilution) for 120 s, and then the protein dissociated in the buffer for 300 s. The sensor was refreshed with 10 mM glycine solution (pH=1.5). The detection temperature was 37° C., the detection frequency was 0.3 Hz, and the sample plate shaking rate was 500 rpm. The data were analyzed by 1:1 model fitting to obtain affinity constants.

B1 and B2 are within 1.5-fold of each other in Kd: 0.121 nM for the first, 0.136 nM for the second.

B3 and B4 are within 1.5-fold of each other in Kd: 0.0905 nM for the first, 0.062 nM for the second.

Going from B5 to B6, the Kd rises from 0.0864 nM to 0.849 nM (9.8-fold).

Going from B1 to B2, the “S E (kon)” value falls from 364000 M⁻¹ s⁻¹ to 232000 M⁻¹ s⁻¹ (1.6-fold).

B3 and B4 are within 1.5-fold of each other in “S E (kon)” value: 212000 M⁻¹ s⁻¹ for the first, 236000 M⁻¹ s⁻¹ for the second.

First: B5
Second: B6
The “S E (kon)” value of the first is 3.4-fold lower: 251000 M⁻¹ s⁻¹ for the first, 850000 M⁻¹ s⁻¹ for the second.

Going from B1 to B2, the “S E(kdis)” value falls from 0.000222 s⁻¹ to 0.000144 s⁻¹ (1.5-fold).

B3 and B4 are within 1.5-fold of each other in “S E(kdis)” value: 0.000124 s⁻¹ for the first, 0.000158 s⁻¹ for the second.

Compared with B5, B6 is 1.7-fold higher in “S E(kdis)” value: 0.000181 s⁻¹ for the first, 0.000307 s⁻¹ for the second.

B1 and B2 are within 1.5-fold of each other in koff: 0.000435 s⁻¹ for the first, 0.000428 s⁻¹ for the second.

Compared with B3, B4 is 1.9-fold lower in koff: 0.000348 s⁻¹ for the first, 0.000182 s⁻¹ for the second.

Going from B5 to B6, the koff rises from 0.000172 s⁻¹ to 0.0092 s⁻¹ (53-fold).

B1 and B2 are within 1.5-fold of each other in kon: 3.58e+06 M⁻¹ s⁻¹ for the first, 3.15e+06 M⁻¹ s⁻¹ for the second.

B3 and B4 are within 1.5-fold of each other in kon: 3.84e+06 M⁻¹ s⁻¹ for the first, 2.94e+06 M⁻¹ s⁻¹ for the second.

Going from B5 to B6, the kon rises from 1.99e+06 M⁻¹ s⁻¹ to 1.08e+07 M⁻¹ s⁻¹ (5.4-fold).

Molecular target: T1, human IL-23 (IL-23-His-Biotin)
Assay: FACS competition, IL-23-His-Biotin 2 µg/mL on 293T-IL-12Rβ1&IL-23R cells; antibody 0.37 µg/mL
Description: as §1

First: B1
Second: B2
The MFI of the first is lower: 169 MFI for the first, 179 MFI for the second.

First: B3
Second: B4
The MFI of the first is lower: 177 MFI for the first, 179 MFI for the second.

Going from B5 to B6, the MFI rises from 186 MFI to 206 MFI.
